Common to all, as to test: HRP-coupled steady-state kinetics
What all share (assay type): biochemical, Phanerodontia chrysosporium
Conditions in all cases: apparent, 50 mM potassium phosphate pH 7.5, O2 as co-substrate

Substrate in series [1]: OCCOCCO
Substrate in series [2]: OCCCCCO
Substrate in series [3]: CCCCCC=O
Substrate in series [4]: CC(O)CCCO
Substrate in series [5]: OCCCCCCO
Substrate in series [6]: CC1CCC(O)O1
Substrate in series [7]: CCCCCCO

The values that follow come from publication PMC7079103.

B1: alcohol oxidase from Phanerochaete chrysosporium (PcAOX; F101S-PcAOX = AOX*) (Phanerodontia chrysosporium; F101S) (protein)
chain: MGHPEEVDVIVCGGGPAGCVVAGRLAYADPTLKVMLIEGGANNRDDPWVYRPGIYVRNMQRNGINDKATFYTDTMASSYLRGRRSIVPCANILGGGSSINSQMYTRASASDWDDFKTEGWTCKDLLPLMKRLENYQKPCNNDTHGYDGPIAISNGGQIMPVAQDFLRAAHAIGVPYSDDIQDLTTAHGAEIWAKYINRHTGRRSDAATAYVHSVMDVQDNLFLRCNARVSRVLFDDNNKAVGVAYVPSRNRTHGGKLHETIVKARKMVVLSSGTLGTPQILERSGVGNGELLRQLGIKIVSDLPGVGEQYQDHYTTLSIYRVSNESITTDDFLRGVKDVQRELFTEWEVSPEKARLSSNAIDAGFKIRPTEEELKEMGPEFNELWNRYFKDKPDKPVMFGSIVAGAYADHTLLPPGKYITMFQYLEYPASRGKIHIKSQNPYVEPFFDSGFMNNKADFAPIRWSYKKTREVARRMDAFRGELTSHHPRFHPASPAACKDIDIETAKQIYPDGLTVGIHMGSWHQPSEPYKHDKVIEDIPYTEEDDKAIDDWVADHVETTWHSLGTCAMKPREQGGVVDKRLNVYGTQNLKCVDLSICPDNLGTNTYSSALLVGEKGADLIAEELGLKIKTPHAPVPHAPVPTGRPATQQVR
Broadly, the Km is the concentration of substrate that gives half-maximal velocity. In general, kcat refers to the number of substrate molecules converted per active site and unit of time at saturation. On to B1, for which the Km is 12.3 mM in series [1]; 69.6 mM in series [2]; 0.20 mM in series [3]; 52.6 mM in series [4]; 12.9 mM in series [5]; 95.5 mM in series [6]. The Km in series [7] is given as 3.0 mM. Besides, the kcat in series [1] is 0.73 s⁻¹; in series [2], 3.48 s⁻¹; in series [3], 0.15 s⁻¹; in series [4] it was 1.28 s⁻¹; in series [5] it was 4.07 s⁻¹; in series [6], 1.13 s⁻¹. In addition, in series [7], the kcat came to 0.56 s⁻¹. The kcat/Km in series [1] is 59.3 M ^-1 s^-1; in series [2], 50.0 M ^-1 s^-1; in series [3], 750 M ^-1 s^-1; in series [4], 24.3 M ^-1 s^-1; in series [5] it was 316 M ^-1 s^-1; in series [6] it was 11.8 M ^-1 s^-1. Further, the kcat/Km in series [7] came out at 187 M ^-1 s^-1.
